Results reported in patent publication US20230105029A1.
“And” between values parts separate entries of the source, which are not always exact repeats. Equal values may be shown once. Read-outs that look alike come from different tables or passages of the source.

Legend:
[1] = biological target: human IL4Rα expressed on HEK293T-IL4Rα-STAT6-STAT6LUC-LB2 cells (human) (UniProt P24394); assay: cell-based or functional assay
[2] = biological target: human IL4Rα expressed on HEK293T-IL4Rα-STAT6-STAT6LUC-LB2 cells (human) (UniProt P24394); assay: cell-based or functional assay; remark: listed apart in the source
[3] = biological target: human IL4Rα expressed on HEK293T-IL4Rα-STAT6-STAT6LUC-LB2 cells (human) (UniProt P24394); assay: cell-based or functional assay; remark: listed apart in the source
[4] = biological target: recombinant human IL4Rα-his protein (in house made) (human) (UniProt P24394); assay: capture ELISA, biotin-IL4Rα-his
[5] = biological target: human IL4Rα expressed on 293F-IL4Rα cells (human) (UniProt P24394); assay: flow cytometry, 293F-IL4Rα cells
[6] = biological target: human IL4Rα expressed on 293F-IL4Rα cells (human) (UniProt P24394); assay: flow cytometry, 293F-IL4Rα cells; remark: listed apart in the source
[7] = biological target: human IL4Rα expressed on 293F-IL4Rα cells (human) (UniProt P24394); assay: flow cytometry, 293F-IL4Rα cells; remark: listed apart in the source
[8] = biological target: marmoset monkey IL4Rα-his protein (marmoset monkey); assay: indirect ELISA, coated cal-IL4Rα-his
[9] = biological target: cynomolgus monkey IL4Rα-his protein (cynomolgus monkey); assay: indirect ELISA, coated cyno IL4Rα-his
[10] = biological target: cynomolgus monkey IL4Rα-his protein (cynomolgus monkey); assay: indirect ELISA, coated cyno IL4Rα-his; remark: listed apart in the source
[11] = biological target: human IL4Rα expressed on 293F-IL4Rα cells (human) (UniProt P24394); assay: flow cytometry on 293F-IL4Rα cells
[12] = biological target: human IL4Rα expressed on 293F-IL4Rα cells (human) (UniProt P24394); assay: flow cytometry on 293F-IL4Rα cells; remark: listed apart in the source
[13] = biological target: human IL4Rα expressed on 293F-IL4Rα cells (human) (UniProt P24394); assay: flow cytometry on 293F-IL4Rα cells; remark: listed apart in the source
[14] = biological target: human IL4Rα expressed on 293F-IL4Rα cells (human) (UniProt P24394); assay: flow cytometry on 293F-IL4Rα cells; remark: listed apart in the source
[15] = biological target: human IL4Rα expressed on 293F-IL4Rα cells (human) (UniProt P24394); assay: flow cytometry on 293F-IL4Rα cells; remark: listed apart in the source
[16] = biological target: human IL4Rα expressed on 293F-IL4Rα cells (human) (UniProt P24394); assay: flow cytometry on 293F-IL4Rα cells; remark: listed apart in the source
[17] = biological target: human IL4Rα expressed on 293F-IL4Rα cells (human) (UniProt P24394); assay: flow cytometry on 293F-IL4Rα cells; remark: listed apart in the source
[18] = biological target: marmoset monkey IL4Rα-his protein (marmoset monkey); assay: indirect ELISA on coated cal-IL4Rα-his
[19] = biological target: marmoset monkey IL4Rα-his protein (marmoset monkey); assay: indirect ELISA on coated cal-IL4Rα-his; remark: listed apart in the source
[20] = biological target: recombinant human IL4Rα-his protein (in house made) (human) (UniProt P24394); assay: SPR (Biacore), antibody captured, IL4Rα-his flowed
[21] = biological target: recombinant human IL4Rα-his protein (in house made) (human) (UniProt P24394); assay: SPR (Biacore), antibody captured, IL4Rα-his flowed; remark: listed apart in the source
[22] = biological target: recombinant human IL4Rα-his protein (in house made) (human) (UniProt P24394); assay: SPR (Biacore), antibody captured, IL4Rα-his flowed; remark: listed apart in the source
[23] = biological target: recombinant human IL4Rα-his protein (in house made) (human) (UniProt P24394); assay: SPR (Biacore), antibody captured, IL4Rα-his flowed; remark: listed apart in the source
[24] = biological target: recombinant human IL4Rα-his protein (in house made) (human) (UniProt P24394); assay: SPR (Biacore), antibody captured, IL4Rα-his flowed; remark: listed apart in the source
[25] = biological target: cynomolgus monkey IL4Rα-his protein (cynomolgus monkey); assay: indirect ELISA on coated cynomolgus IL4Rα-his
[26] = biological target: cynomolgus monkey IL4Rα-his protein (cynomolgus monkey); assay: indirect ELISA on coated cynomolgus IL4Rα-his; remark: listed apart in the source
[27] = biological target: cynomolgus monkey IL4Rα-his protein (cynomolgus monkey); assay: indirect ELISA on coated cynomolgus IL4Rα-his; remark: listed apart in the source
[28] = biological target: human IL4Rα expressed on 293F-IL4Rα cells (human) (UniProt P24394); assay: flow cytometry, blocks biotin-IL4 binding to 293F-IL4Rα cells
[29] = biological target: human IL4Rα expressed on 293F-IL4Rα cells (human) (UniProt P24394); assay: as above; remark: listed apart in the source
[30] = biological target: recombinant human IL4Rα-his protein (in house made) (human) (UniProt P24394); assay: competitive ELISA, blocks biotin-IL4 binding to coated IL4Rα-his
[31] = biological target: recombinant human IL4Rα-his protein (in house made) (human) (UniProt P24394); assay: as above; remark: listed apart in the source
[32] = biological target: recombinant human IL4Rα-his protein (in house made) (human) (UniProt P24394); assay: as above; remark: listed apart in the source
[33] = biological target: human IL4Rα expressed on 293F-IL4Rα cells (human) (UniProt P24394); assay: flow cytometry on 293F-IL4Rα cells, blocked ligand biotin human IL4
[34] = biological target: human IL4Rα expressed on 293F-IL4Rα cells (human) (UniProt P24394); assay: as above; remark: listed apart in the source
[35] = biological target: human IL4Rα expressed on 293F-IL4Rα cells (human) (UniProt P24394); assay: as above; remark: listed apart in the source
[36] = biological target: human IL4Rα expressed on 293F-IL4Rα cells (human) (UniProt P24394); assay: as above; remark: listed apart in the source
[37] = biological target: human IL4Rα expressed on 293F-IL4Rα cells (human) (UniProt P24394); assay: as above; remark: listed apart in the source
[38] = biological target: recombinant human IL4Rα-his protein (in house made) (human) (UniProt P24394); assay: competitive ELISA: coated human IL4Rα-his, blocked ligand biotin human IL4
[39] = biological target: recombinant human IL4Rα-his protein (in house made) (human) (UniProt P24394); assay: as above; remark: listed apart in the source
[40] = biological target: recombinant human IL4Rα-his protein (in house made) (human) (UniProt P24394); assay: as above; remark: listed apart in the source
[41] = biological target: recombinant human IL4Rα-his protein (in house made) (human) (UniProt P24394); assay: as above; remark: listed apart in the source
[42] = biological target: recombinant human IL4Rα-his protein (in house made) (human) (UniProt P24394); assay: as above; remark: listed apart in the source
[43] = biological target: recombinant human IL4Rα-his protein (in house made) (human) (UniProt P24394); assay: competitive ELISA, blocks biotin-IL4Rα-his binding to coated Benchmark (self-competition)
[44] = biological target: recombinant human IL4Rα-his protein (in house made) (human) (UniProt P24394); assay: as above; remark: listed apart in the source
[45] = biological target: recombinant human IL4Rα-his protein (in house made) (human) (UniProt P24394); assay: capture ELISA: antibody captured on anti-IgG Fc plate, biotin human IL4Rα-his detected
[46] = biological target: recombinant human IL4Rα-his protein (in house made) (human) (UniProt P24394); assay: as above; remark: listed apart in the source
[47] = biological target: recombinant human IL4Rα-his protein (in house made) (human) (UniProt P24394); assay: as above; remark: listed apart in the source
[48] = biological target: recombinant human IL4Rα-his protein (in house made) (human) (UniProt P24394); assay: as above; remark: listed apart in the source
[49] = biological target: recombinant human IL4Rα-his protein (in house made) (human) (UniProt P24394); assay: as above; remark: listed apart in the source
[50] = biological target: recombinant human IL4Rα-his protein (in house made) (human) (UniProt P24394); assay: as above; remark: listed apart in the source
[51] = biological target: recombinant human IL4Rα-his protein (in house made) (human) (UniProt P24394); assay: competitive ELISA: antibody mixed with biotin human IL4Rα-his, competitor plate-coated Benchmark
[52] = biological target: recombinant human IL4Rα-his protein (in house made) (human) (UniProt P24394); assay: as above; remark: listed apart in the source
[53] = biological target: recombinant human IL4Rα-his protein (in house made) (human) (UniProt P24394); assay: as above; remark: listed apart in the source
[54] = biological target: recombinant human IL4Rα-his protein (in house made) (human) (UniProt P24394); assay: as above; remark: listed apart in the source

cynomolgus monkey IL4Rα-his protein (cynomolgus monkey), sequence (chain, as listed by the source): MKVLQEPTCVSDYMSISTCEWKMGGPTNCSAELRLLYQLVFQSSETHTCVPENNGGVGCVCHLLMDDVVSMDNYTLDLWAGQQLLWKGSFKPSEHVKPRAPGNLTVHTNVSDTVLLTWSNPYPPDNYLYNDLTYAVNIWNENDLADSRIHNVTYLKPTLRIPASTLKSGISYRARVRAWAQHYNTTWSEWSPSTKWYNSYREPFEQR
marmoset monkey IL4Rα-his protein (marmoset monkey), sequence (chain, as listed by the source limits assumed): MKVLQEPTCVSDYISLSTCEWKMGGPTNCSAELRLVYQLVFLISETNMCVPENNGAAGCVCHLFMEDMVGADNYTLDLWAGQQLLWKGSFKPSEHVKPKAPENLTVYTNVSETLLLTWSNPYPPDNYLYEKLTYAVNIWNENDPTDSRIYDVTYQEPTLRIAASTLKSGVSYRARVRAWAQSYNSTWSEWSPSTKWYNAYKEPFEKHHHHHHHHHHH

B1: anti-IL4Rα benchmark (Dupilumab) (antibody, INN chains, looked up, V domains shown)
VH: EVQLVESGGGLEQPGGSLRLSCAGSGFTFRDYAMTWVRQAPGKGLEWVSSISGSGGNTYYADSVKGRFTISRDNSKNTLYLQMNSLRAEDTAVYYCAKDRLSITIRPRYYGLDVWGQGTTVTVSS
VL: DIVMTQSPLSLPVTPGEPASISCRSSQSLLYSIGYNYLDWYLQKSGQSPQLLIYLGSNRASGVPDRFSGSGSGTDFTLKISRVEAEDVGFYYCMQALQTPYTFGQGTKLEIKR
Inhibition on IL4 induced STAT6 phosphorylation (IC50, nM) [1]: 0.28 nM
Inhibition on IL13 induced STAT6 phosphorylation (IC50, nM) [1]: 0.53 nM
Inhibition on IL4 induced STAT6 phosphorylation (IC50, nM) [2]: 0.37 nM
Inhibition on IL13 induced STAT6 phosphorylation (IC50, nM) [2]: 0.48 nM
Inhibition on IL4 induced STAT6 phosphorylation (IC50, nM) [3]: 0.7 nM
Inhibition on IL13 induced STAT6 phosphorylation (IC50, nM) [3]: 0.84 nM
EC50 [4]: 0.05 nM
EC50 [5]: 0.08 nM
EC50 [6]: 0.46 nM
EC50 [7]: 0.4 nM and 0.53 nM
EC50 [8]: 1.72 nM and 1.84 nM
EC50 [9]: 0.95 nM
EC50 [10]: 0.67 nM and 3.34 nM
EC50 [11]: 0.134 nM
EC50 [12]: 0.128 nM
EC50 [13]: 0.254 nM
EC50 [14]: 0.0816 nM
EC50 [15]: 0.462 nM
EC50 [16]: 0.526 nM
EC50 [17]: 0.397 nM
EC50 [18]: 1.84 nM
EC50 [19]: 1.72 nM
Kd [20]: 0.17 nM
koff [20]: 3.77e-05 s⁻¹
kon [20]: 222000 M⁻¹ s⁻¹
Kd [21]: 0.466 nM
Kd [22]: 0.444 nM
koff [22]: 0.00033 s⁻¹
kon [22]: 742000 M⁻¹ s⁻¹
Dissociation % [23]: -2.64%
End (RU) [23]: 70 RU
Kd [23]: 0.188 nM
Start (RU) [23]: 71.9 RU
koff [23]: 6.25e-05 s⁻¹
kon [23]: 333000 M⁻¹ s⁻¹
Kd [24]: 0.746 nM
EC50 [25]: 0.954 nM
EC50 [26]: 3.33 nM
EC50 [27]: 0.674 nM
IC50 [28]: 0.22 nM
IC50 [29]: 0.42 nM and 0.51 nM
IC50 [30]: 0.68 nM
IC50 [31]: 2.06 nM
IC50 [32]: 1.74 nM and 1.56 nM
IC50 [33]: 0.302 nM
IC50 [34]: 0.313 nM
IC50 [35]: 0.22 nM
IC50 [36]: 0.505 nM
IC50 [37]: 0.421 nM
IC50 [38]: 0.682 nM
IC50 [39]: 0.269 nM
IC50 [40]: 2.06 nM
IC50 [41]: 1.56 nM
IC50 [42]: 1.74 nM
IC50 [43]: 0.02 nM
IC50 [44]: 0.19 nM and 0.13 nM
EC50 [45]: 0.0485 nM
EC50 [46]: 0.0284 nM
EC50 [47]: 0.0228 nM
EC50 [48]: 0.0479 nM
EC50 [49]: 0.0505 nM
EC50 [50]: 0.0517 nM
IC50 [51]: 0.0235 nM
IC50 [52]: 0.0158 nM
IC50 [53]: 0.132 nM
IC50 [54]: 0.189 nM
